From paper PMC3954793, “SHP-2 Binds to Caveolin-1 and Regulates Src Activity via Competitive Inhibition of CSK in Response to H2O2 in Astrocytes” (PLoS ONE, 2014) come the findings set out here.

Ends that are not written are not given here.

In assay [1] the target is T1, recombinant SHP-2 protein ( (human SHP-2 cloned for the …, UniProt Q06124 1-593)).
T1 construct: SHP-2 (PTPN11); the in-house construct holds the protein coding region of human SHP-2 in pGEX-6P-1
T1 sequence (looked up): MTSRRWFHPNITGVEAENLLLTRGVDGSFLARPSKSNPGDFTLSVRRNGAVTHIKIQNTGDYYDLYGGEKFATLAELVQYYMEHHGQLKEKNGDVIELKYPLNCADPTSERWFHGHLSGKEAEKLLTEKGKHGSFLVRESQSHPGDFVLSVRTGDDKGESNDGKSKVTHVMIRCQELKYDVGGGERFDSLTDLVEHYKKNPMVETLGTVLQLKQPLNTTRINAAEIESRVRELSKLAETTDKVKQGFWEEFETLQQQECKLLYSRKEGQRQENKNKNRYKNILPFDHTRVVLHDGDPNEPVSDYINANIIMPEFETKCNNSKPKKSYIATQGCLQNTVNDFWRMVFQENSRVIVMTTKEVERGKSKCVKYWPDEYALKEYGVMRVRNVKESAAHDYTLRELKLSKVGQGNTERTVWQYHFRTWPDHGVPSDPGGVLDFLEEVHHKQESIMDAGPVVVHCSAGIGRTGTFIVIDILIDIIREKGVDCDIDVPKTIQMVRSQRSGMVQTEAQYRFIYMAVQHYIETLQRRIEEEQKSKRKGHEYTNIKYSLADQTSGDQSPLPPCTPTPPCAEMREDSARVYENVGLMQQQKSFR
Put plainly: bead-based flow cytometric binding assay; caveolin-1 (1–50) peptide conjugated to carboxyl beads with EDC; incubated with recombinant CSK or SHP-2 protein (1–10 µg) for 1 h at RT; detected with anti-CSK or anti-SHP-2 and fluorescent secondary antibody. Particulars: both partners purified.

The target in another assay is T2, recombinant CSK protein ( (human CSK cloned for the …, UniProt P41240 1-450)).
T2 construct: CSK; the in-house construct holds the protein coding region of human CSK in pGEX-6P-1
T2 sequence (P41240 whole entry): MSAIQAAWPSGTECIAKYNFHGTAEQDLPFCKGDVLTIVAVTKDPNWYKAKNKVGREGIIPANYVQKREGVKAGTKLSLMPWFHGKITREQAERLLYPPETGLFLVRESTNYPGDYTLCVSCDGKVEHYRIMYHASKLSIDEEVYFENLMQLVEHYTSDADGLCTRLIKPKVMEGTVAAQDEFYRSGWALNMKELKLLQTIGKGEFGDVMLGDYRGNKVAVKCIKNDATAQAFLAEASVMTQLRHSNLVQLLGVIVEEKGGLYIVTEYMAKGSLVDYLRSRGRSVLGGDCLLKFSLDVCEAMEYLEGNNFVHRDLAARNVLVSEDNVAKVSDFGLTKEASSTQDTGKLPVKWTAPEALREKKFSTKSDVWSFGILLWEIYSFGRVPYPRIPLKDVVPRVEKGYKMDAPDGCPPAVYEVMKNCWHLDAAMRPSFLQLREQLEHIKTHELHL
The description is as above. The following applies: both partners purified.

B1: 1–50 mer caveolin-1 peptide (peptide, UniProt Q03135 1-50, looked up)
peptide: MSGGKYVDSEGHLYTVPIREQGNIYKPNNKAMADELSEKQVYDAHTKEID
modifications: not fully specified
notes: caveolin-1 residues 1-50, fifty-amino acid-long synthetic peptide; Conjugated to carboxyl beads with EDC; also called caveolin-1 peptide (1–50); p-caveolin-1 peptide; source: synthetic peptide (PEPTRON)
In the case of B1, the binding result (in assay [1]; with recombinant CSK protein) was “binds” throughout.
